Patent publication US12338281B2, “Anti-adrenomedullin antibodies and pharmaceutical compositions thereof” (ADRENOMED AG, priority 2011, dated 2025)

Legend:
Human ADM 1-52 = biological target: T1, Human ADM 1-52 (Homo sapiens, UniProt P35318); assay: Human recombinant Adrenomedullin receptor (CRLR+RAMP3) cAMP functional assay (Adrenomedullin Bioassay) in CHO-K1 cells, agonist human ADM; format: cell-based; conditions: Table 3; 5.63 nM Human ADM 1-52; antibody 0.16-100 μg/ml
T1 construct: host or cells: the receptor chains are made by transfected CHO-K1 cells (FAST-027C); ADM is an added peptide
T1 sequence (P35318 95-146): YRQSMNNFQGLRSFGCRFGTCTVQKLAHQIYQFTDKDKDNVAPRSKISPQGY
Procedure: The effect of selected ADM-antibodies on ADM-bioactivity was tested in an human recombinant Adrenomedullin receptor cAMP functional assay (Adrenomedullin Bioassay).
• Cell line: CHO-K1 • Receptor: Adrenomedullin (CRLR+RAMP3) • Receptor Accession Number Cell line: CRLR: U17473; RAMP3: AJ001016
Dose response curves were performed in parallel with the reference agonists (hADM or mADM).
For antagonist testing, 6 μl of the reference agonist (human (5.63 nM) or mouse (0.67 nM) adrenomedullin) was mixed with 6 μl of the test samples at different antagonist dilutions; or with 6 μl buffer. After incubation for 60 min at room temperature, 12 μl of cells (2,500 cells/well) were added. The plates were incubated for 30 min at room temperature.
The anti-h-ADM antibodies (NT-H, MR-H, CT-H) were tested for antagonist activity in human recombinant adrenomedullin receptor (FAST-027C) cAMP functional assay in the presence of 5.63 nM Human ADM 1-52, at the following final antibody concentrations: 100 μg/ml, 20 μg/ml, 4 μg/ml, 0.8 μg/ml, 0.16 μg/ml.

hADM = biological target: T2, hADM (Homo sapiens, UniProt P35318); assay: Stability of human Adrenomedullin in human citrate plasma, quantified by hADM immunoassay; format: in vitro ADME; conditions: 10 nM hADM, 24° C., NT-H 100 μg/ml
T2 sequence (P35318 95-146 limits assumed): T1 sequence (P35318 95-146)
Procedure: The stabilizing effect of human ADM by human ADM antibodies was tested using a hADM immunoassay.
The technology used was a sandwich coated tube luminescence immunoassay, based on Acridinium ester labelling.
The final concentration was approx. 800.000 relative light units (RLU) of labelled compound (approx. 20 ng labeled antibody) per 200 μL.
After blocking with 5% bovine serum albumine, the tubes were washed with PBS, pH 7.4 and vacuum dried.
Unbound tracer was removed by washing 5 times (each 1 ml) with washing solution (20 mM PBS, pH 7.4, 0.1% Triton X-100).
Human ADM was diluted in human Citrate plasma (final concentration 10 nM) and incubated at 24° C. At selected time points, the degradation of hADM was stopped by freezing at −20° C. […] The remaining hADM was quantified by using the hADM immunoassay described above.

B1: NT-H: mouse monoclonal antibody raised against human ADM 1-21, … (SEQ ID: 15) (antibody, V domains shown)
VH: QVQLQQSGAELMKPGASVKISCKATGYTFSRYWIEWVKQRPGHGLEWIGEILPGSGSTNYNEKFKGKATITADTSSNTAYMQLSSLTSEDSAVYYCTEGYEYDGFDYWGQGTTLTVSS
VL: DVLLSQTPLSLPVSLGDQATISCRSSQSIVYSNGNTYLEWYLQKPGQSPKLLIYRVSNRFSGVPDRFSGSGSGTDFTLKISRVEAEDLGVYYCFQGSHIPYTFGGGTKLEIK
- Maximal inhibition of ADM bioactivity (ADM-Bioassay) (%) (Human ADM 1-52): 38%
- half life of hADM in the presence of NT-H (hADM): 18.3 h
